Test: yeast display, Sf9 membrane polyspecificity reagent, FACS + sequencing; frameworks hold sequencing errors
Procedure, shortened: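 Genes from sorted yeast were amplified by colony PCR, read by MiSeq 2 × 250 sequencing and filtered on CDR length. These cells carried a synthetic nanobody library in Saccharomyces cerevisiae BJ5465 and were sorted by FACS into low and high (top ~1%) gates on anti-HA and streptavidin fluorescence. Polyreactivity is labelled according to the gate of origin.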

Row | Sequence | polyreactivity (PSR sort gate)
1 | QVQLVESGGGLVQAGGSLRLSCAASGSIFTYYTMAWYRQAPGTERELVAAINGRGHSTYYADSVKGRFTISRDNAKNTVYLQMKSLKSEDTAVYYCKALGSLDGRYGYWGQGTQVTVSS | high polyreactivity
2 | QVQLVESGGGLVQAGGSLRLSCAASGSIFVAYDMGWYRQAPGKERELVAAINFDGTSTYYADSVKGRFTISRDNAKNTVYLQMNSLKPEETAVYYCNNRVSPTYKGQYEYWGQGTQVTVSS | low polyreactivity
3 | QVQLVESGGGLVQAGGSLRLSCAASGSIFVDYTMGWYRQAPGKERELVAAITYRGTRTYYADSVKGRFTISRDNAKNTVYLQMNSLKPEDTAVYYCNKLYRRYPVPREYDYWGQGTQVSVSS | high polyreactivity
4 | QVQLVESGGGLVQAGGSLRLSCAASGSIFVDYVMVWYRQAPGKERELVAAISGNGGRTYYADSVKGRFTISRDNAKNTVYLQMNSLKPEDTAVYYCAKVRSVTIGRDYWGQGTQVTVSS | high polyreactivity
5 | QVQLVESGGGLVQAGGSLRLSCAASGSIFVFNAMGWYRQAPGKERELVAAITSGGRTYYADSVKGRFTISRDNAKNTVYLQMNSLKPEDTAVYYCAAEFWFFAGWAYEYWGQGTQVTVSS | high polyreactivity
6 | QVQLVESGGGLVQAGGSLRLSCAASGSIFVFNAMGWYRQAPGKERELVADITRRGGSTYYADSVKGRFTISRDNAKNTVYLQMNSLKPEDTAVYYCAAANPRDHRGANDYWGQGTQVTVSS | high polyreactivity
7 | QVQLVESGGGLVQAGGSLRLSCAASGSIFVFYAMGWYRQAPGKEREFVAAMSISGGRTYYADSVKGRFTISRDIAKNTVYLQMNSLKPEDTAVYYCAASRVYTSITLYYWGQGTQVTVSS | high polyreactivity
8 | QVQLVESGGGLVQAGGSLRLSCAASGSIFVGKAMGWYRQAPGKERELVAAISSSGGRTYYADSVKGRFTISRDNAKNTVYLQMNSLKPEDTAVYYCAADVSYKVKSWSVYRYEYWGQGTQVTVSS | high polyreactivity
9 | QVQLVESGGGLVQAGGSLRLSCAASGSIFVGNAMGWYRQAPGKERELVAAISSSGGRTFYADSVKWRFTISRDNAKNTVYLQMNSLKPEDTAVYYCAAVYTHWQQRMDYWGQGTQVTVSS | high polyreactivity
10 | QVQLVESGGGLVQAGGSLRLSCAASGSIFVGNAMGWYRQAPGTERELVAAISSSGGSTYSADSVKGRFTISRDNAKNTVYLQMNSLKPEDTAVYYCAADTYSTSGYYYWGQGTQVTVSS | low polyreactivity
11 | QVQLVESGGGLVQAGGSLRLSCAASGSIFVGNGMGWYRQAPGKERELVAAITFRSGSTYYADSVKGRFTISRDNAKNTVYFQMISMKPEDTAVSYCAADEYYQVYAYDYCGQGTQVTVSS | low polyreactivity
12 | QVQLVESGGGLVQAGGSLRLSCAASGSIFVGNVMGWYRQAPGKERELVAAIRFSGGNTYYADSVKGRFTISRDNAKNTVYLQMNSLKPEDTAVYYCAARYGQGSYPTKYYYWGQGTQVTVSS | high polyreactivity
13 | QVQLVESGGGLVQAGGSLRLSCAASGSIFVGYAMGWYRQAPGKEREFVAAISQRGTRTYYADSVKGRFTISRDNAKNTVYLQMNSLKPEDTAVYYCAARGWDQRSDYWGQGTQVIVSS | high polyreactivity
14 | QVQLVESGGGLVQAGGSLRLSCAASGSIFVGYAMGWYRQAPGKERELVAAISSNGGSTYYADSVKGRFTISRDNAKNTVYLQMNSLKPEDTAVYYCAAGVRRVYASGHGAYGYWGQGTQVTVSS | low polyreactivity
15 | QVQLVESGGGLVQAGGSLRLSCAASGSIFVGYDMGWYRQAPGKERELVAAITGTVSTYYADSVKGRFTISRDNAKNTVYLQMNSLKPEDTAVYYCAAEFVYAYGDGGVYWSWMEYWGQGTQVTVSS | low polyreactivity
16 | QVQLVESGGGLVQAGGSLRLSCAASGSIFVHNAMGWYRQAPGKERELVAAISSNGGRTYYADSVKGRFTISRDNAKNTVYLQMNSLKPEDTAVYYCNAPRFVGLNVYGYDYWGQGTQVTVSS | high polyreactivity
17 | QVQLVESGGGLVQAGGSLRLSCAASGSIFVHNDMGGYRQAPGTERELVATIDSAGGTYYADSVKGRFTISRDNAKYTVYLQMNSLKPEDTAVYYCAAYGPYVLSIYDYWGQGTQVTVSS | low polyreactivity
18 | QVQLVESGGGLVQAGGSLRLSCAASGSIFVHYALGWYRQAPGKERELVAAITVTGGTTYYADSVKGRFTISRDNAKNTVYLQMNSLKPEDTAVYYCATRANDGGWTQFGHGYDYWGQGTQVTVSS | low polyreactivity
19 | QVQLVESGGGLVQAGGSLRLSCAASGSIFVINAMGWYRQAPGKERELVAAISYSGTGTYYADSVKGRFPISRDNAKITVYLQMNSLKPEDTAVYYCAADYYYRYRIYDYWGHGTQVTVSS | low polyreactivity
20 | QVQLVESGGGLVQAGGSLRLSCAASGSIFVIYALGWYRQAPGKERELVARITKSGGTTYYADSVKGRFTISRDNAKNTVYLQMNSLKPDDTAVYYCNVGYGGSSDGGYDYWGQGTQVTVSS | high polyreactivity
21 | QVQLVESGGGLVQAGGSLRLSCAASGSIFVKYAMGWYRQAPGKERELVAAISRRGGSTNYADSVKGRFTISRDNAKNTVYLQMNSLKPEDTAVYYCNAQTVTSYGGDSWGQGTQVTVSS | high polyreactivity
22 | QVQLVESGGGLVQAGGSLRLSCAASGSIFVLNAMGWYRQAPGKERELLAGITYSGGSTYYADSVKGRFTISRDNAKNTVYLQMNSLKPEDTAVYYCAAPVRRYPYPGRFYYWGQGTQVTVSS | low polyreactivity

Row | Sequence | polyreactivity (PSR sort gate)
23 | QVQLVESGGGLVQAGGSLRLSCAASGSIFVLNAMGWYTQAPGKERELVAAINKSGGRTYYADSVKGRFTISRDNAKNTVYLQMNSLKPEDTAVDYCAVDISVTGSSNRYGYWGQGTQVTVSS | high polyreactivity
24 | QVQLVESGGGLVQAGGSLRLSCAASGSIFVLYAMGWYRKAPGKERELVAAISRGVGGTNYADSVKGRFTISRDNAKITVYLQMNSLKPEDTAVYYCAAQTLRWSHYYYWGQGTQVTVSS | high polyreactivity
25 | QVQLVESGGGLVQAGGSLRLSCAASGSIFVLYAMGWYRQAPGKERELVAAISRGVGGTNYADSVKGRFTISRDNAKNTVYLQMNSLKPEDTAVYYCAAQTLRWSHYYYWGQGTQVTVSS | high polyreactivity
26 | QVQLVESGGGLVQAGGSLRLSCAASGSIFVNNAMGWYRQAPGKERELVAAITCSTGSTYYADSVKGRFTISRDNAKNTVYLQMNSLKPEDTAVYYCAATSYTATWRYYYWGQGTQVTVSS | high polyreactivity
27 | QVQLVESGGGLVQAGGSLRLSCAASGSIFVNNAMVWYRQAPGKERELVAAISSRGGSTYYADSVKGRFTISRDNAKNTVYLQMNSLKPEDTAVYYCAAAGYGKVRGDYWGQGTQVTVSS | low polyreactivity
28 | QVQLVESGGGLVQAGGSLRLSCAASGSIFVNYAKGWYRQAPGKERELVAAITRSGGRTYYADSVKGRFTISRDNAKNTVYLQMNSLKPEDTAVYYCNKRRYPYGWGQGTQVNVSS | high polyreactivity
29 | QVQLVESGGGLVQAGGSLRLSCAASGSIFVNYAMGWYRQAPGKERELVAAITLRGGSTFYADSVKGRFTISRDNAKNTVYLQMNSLKPEDTAVYYCAASSLRYRAYKSLFDYWGQGTQVTVSS | low polyreactivity
30 | QVQLVESGGGLVQAGGSLRLSCAASGSIFVPYAMGWYRQAPGKERELVAAISSRGGRTYYADSVKGRFTISRDNPKNTVYLQMNSLKPEDTAVYYCNKTAGSHIPRLEYWGQGTQVTVSS | low polyreactivity
31 | QVQLVESGGGLVQAGGSLRLSCAASGSIFVPYAMGWYRQAPGKERELVAAISSSTASTYYADSVKGRFTISRDNAKNTVYLQMNSLKPEDTAVYYCNAEQWDYGVRVAHYDYWGQGTQVTVSS | low polyreactivity
32 | QVQLVESGGGLVQAGGSLRLSCAASGSIFVQYDMGWYRQAPGKERELVAAITSGSSTNYADSVKGRFTISRDNAKNTVYLQMNSLKPEDTAVYYCAASTPYSYRYDYWGQGTQVTVSS | low polyreactivity
33 | QVQLVESGGGLVQAGGSLRLSCAASGSIFVRNALGWYRQAPGKEREFVAIRFSGATTYYADSVKGRFTISRDNAKNTVYLQMNSLKPEDTAVYYCAAVARTYGRTSYYWGQGTQVTVSS | high polyreactivity
34 | QVQLVESGGGLVQAGGSLRLSCAASGSIFVRNAMGWYRQAPGKERELVAAITYRGGSTYYADSVKGRFTISRDNAKNTVYFQMNSLKPEDTAVYYCFDVNTDVLSRVYRGWGYYYWGQGTQVTVSS | low polyreactivity
35 | QVQLVESGGGLVQAGGSLRLSCAASGSIFVRYAKGWYRQAPGKERELVAAIDIGGGTYYADSVKGRFTISRDNAKNTVYLQMNSLKPEDTAVYYCAADGFTEYIYLPYDYWGQGTQVTVSS | high polyreactivity
36 | QVQLVESGGGLVQAGGSLRLSCAASGSIFVSNAMGWSRQAPGKERELVAAITRSGGSTYYADSVKGRFTISRDNAKNTVYLQMNCLKPEDTAVYYCAAATYRYGYGYWGQGTQVTVSS | high polyreactivity
37 | QVQLVESGGGLVQAGGSLRLSCAASGSIFVSNAMGWYRQAPGKEREFDAGITRRGGRTYYADSVKGRFTISRDNAKNTVYLQMNSLKPEDTPVYYCAAKSTTSRFDYWGQGTQVTVSS | high polyreactivity
38 | QVQLVESGGGLVQAGGSLRLSCAASGSIFVSYAMGWYRQAPGKERELVAAISISDGSTYADSVKGRFTISRDNAKNTVYLQMNSLKPEDTAVYYCATYLVYDYAYVAYDYWGQGTQVTVSS | low polyreactivity
39 | QVQLVESGGGLVQAGGSLRLSCAASGSIFVSYAMGWYRQAPGKERELVAAISSSGTRTYYADSVKGRFTISRDNAKNTVYLQMNSLKPEDTAVYYCAKDSYHTVWGGYWGQGTQVTVSS | high polyreactivity
40 | QVQLVESGGGLVQAGGSLRLSCAASGSIFVSYAMGWYRQAPGKERELVAAITSIGTRTNYADSVKGRFTISRDNAKNTVYLPMNSLKPEDTAVYYCNAPRFWSRHGLRDYWGQGTQVTVSS | high polyreactivity
41 | QVQLVESGGGLVQAGGSLRLSCAASGSIFVSYAMGWYRQAPGKERELVAVISYSGVSTYYADSVKGRFTISRDNAKNTVYLQMNSLKPEDTAVYYCATRQYGTRHILKYNYWGQGTQVTVSS | low polyreactivity
42 | QVQLVESGGGLVQAGGSLRLSCAASGSIFVSYAMGWYRQAPGNDRELVAAISGGGVSTYYADSVKGRFSISRDNAKNTVYLQMNSLKPEDTAVYYCATPYVQTGSGYTGDYWGQGTQVTVSS | high polyreactivity
43 | QVQLVESGGGLVQAGGSLRLSCAASGSIFVSYGMGWYRPAPGKERELVAAISGGGVSTYYADSVKGRFTISRDNAKNTVYLQMNSLIPEDTAVYYCAAEVSFGWGNYGYDYWGQGTQVTVSS | high polyreactivity
